The values below come from the DeepSol protein solubility set.

A short description of the data set: soluble on expression in E. coli; label from the status in PepcDB or PDB records.
As for “MNGFDGLQEEESSDLKSIQKELAILKLKLSEQESLFNSITENTLAGYWIWDIPLNTMFISAHLKSMLGYADHELENSPETINMLMHPSDLPATYALLSKHVESDGKVPFEIEVRYKHKNGSIVWVICSGNIVTRDENGKPSKMIGCHLDNTELKKAQGVQKYTEELERKNVEMEQFAYVASHDLQEPLNTIQGFIALLSAKLEDAPDPDVTQYLHYINQSTLRMTNLIKGLLEYSRIGKNVVMSKIDCNQVITDVLMDLHIQVEETQADIEVTPLPFVMGYDIELRILFQNLISNALKFSVRRPVIKIYSVVEGGYFKFSVADNGIGIDPQFREKIFKLYQQLHPKSTYEGNGLGLAQCFKIVTELHSGSIWVESNEKEGSIFHFTIPYNA”, the “soluble on expression in E. coli” value is listed as “not soluble”.
As to “MNHQETMTDYLMAFIEGLKNSGVEQAVISPGSRSTPLALLLHRETAIQTFVDVDERSAAFFALGLSKASQKPVVLLCTSGTAAANYYPAICEANISHVPLVVLTTDRPHELRQVGAPQAMDQLQMYQNHVKLFVEMALPEATEEMLNYAYWQGAKGAAFAQQTPAAPVHLNFPLREPLLPDLERKTKSSQQTALFAGQSILSTEQVQQLADQWYQKNGVLVVGGSHTEEEATLFIQLAEALQWPLLADPLANIVTHGQNSEVVIAHSDLFLNVATLPQEPEVVVRFGSLPISKNIMLWLKRLATTETAFYFVDENGQWQEQLKKSQTVIQAKETTFVEQLLTVVKPTEATWLAQWLLLEKTVSEVLLETLNATELNETTASLAVHQTMKENGQLFVSNSMAIRYLDRFMDSRPYRMFGNRGINGIDGIVSTALGMSAIAPTQQNVLLIGDLALYHDMNGLFLAKRYQLPLTIVLLNNNGGGIFSFLSQRTLREDDFEPLFGTPLDLDFSLVAELYGASYQEVKTIAELKQILQAAAEEPQFQVIEVKGNRQENVHLYESILAEIGRRVERQGISWNG”, the “soluble on expression in E. coli” value is listed as “not soluble”.
“MNHTEIRVVTGPANYFSHAGSLERLTDFFTPEQLSHAVWVYGERAIAAARPYLPEAFERAGAKHLPFTGHCSERHVAQLAHACNDDRQVVIGVGGGALLDTAKALARRLALPFVAIPTIAATCAAWTPLSVWYNDAGQALQFEIFDDANFLVLVEPRIILQAPDDYLLAGIGDTLAKWYEAVVLAPQPETLPLTVRLGINSACAIRDLLLDSSEQALADKQQRRLTQAFCDVVDAIIAGGGMVGGLGERYTRVAAAHAVHNGLTVLPQTEKFLHGTKVAYGILVQSALLGQDDVLAQLITAYRRFHLPARLSELDVDIHNTAEIDRVIAHTLRPVESIHYLPVTLTPDTLRAAFEKVEFFRI”: the “soluble on expression in E. coli” value was “not soluble”.
On to “MNIAIIGGGIAGLATAHLLCDDHRVTLFEANDYLGGHTNTVDVSLDGTTLAVDTGFIVFNERTYPNFIRLLERLNVASRPSVMSFSVTSERNGLEYCATNLDTLFAQRRNFLNRPFWRMLREIVRFNREARELYDSHEMTLTLGDYLKNRGYSVTFVENFLVPMGAAIWSADPKRFAMFPAAAFVRFFTNHGILNVVDQPRWRVVAGGSREYVAPLARPFRDRVRLSTPVDRVRRFPDRVAVTTRGGETEYFDQVVLACHSDQALAMLTDPSDAERELLSAIPYQENDTVLHTDSRLLPGLPKARASWNCRIPRHERDGVFVTYWMNRLQSLATSTDFCVTLNGTEAIAPERIIRRITYHHPVYSPAAFEAQKRRDEISGTNRTWYCGAYWGYGFHEDGLNSALAVCRRFGRGLLEHHHHHH”, for which the “soluble on expression in E. coli” value is given as “not soluble”.
With “MNIDSDIFKIQSNNVLPSRGKILISEPFLRDATFGRSVVLLIDHTEEGSMGLIINKQLPIFVNDIIKEFKYIENIPLYKGGPIATDTLFYLHTLADIPGAIPISKGLYLNGDFDEIKKYILQGNKVDRYIRFFLGYSGWESEQLSTELKENTWLVSKEENAYLMNGDTKDMWKQALEKLGSKYETWSRFPQVPTFN” the entry was “not soluble”; with “MNIEIKDTLISEEQLQEKVKELALQIERDFEGEEIVVIAVLKGSFVFAADLIRHIKNDVTIDFISASSYGNQTETTGKVKLLKDIDVNITGKNVIVVEDIIDSGLTLHFLKDHFFMHKPKALKFCTLLDKPERRKVDLTAEYVGFQIPDEFIVGYGIDCAEKYRNLPFIASVVTEESYNLKSR”, “soluble”; with “MNIFEAIENRHSVRDFLERKMPERVKDDIENLLVKFITKKLDWKINLSSFPSYIYAKAEKHFDELVEYGFQGEQIVLFLTAQGFGTCWMARSPHPDVPYIIVFGYPRTRNFTRKRRPITSFLENDLEELPPEIVKIVEMTILAPSALNRQPWKIKYTGGELCISSERPVDLGIALSHAYLTAREIFKREPVIQKRGEDTYCLILNP”, “not soluble”.
With “MNIFYEESGQFKIAAIIQKNDATYQVDTPHGKRTKVKANNVFAEFDGDMAAFLENAQAQAADIDTDLLWEVCGEEEFTAEAIAEEYYGHAPTKTELAATLIALYAAPMYFYKKAKGVFKAAPEETLKQALAAIERKKQQDAQIDAWAEALKRGEMPSEIAADLKTILHAPDKQSLTYKAFTKAADALKTSAYELAKKTGGITSIPQYLQDGFEIKYFPKGTGFPDLALPEMPDLPKADVTAFSIDDESTTEVDDALSLTDLDNGTKRVGIHIAAPSLAVKPGDKMEKNIMERLSTVYFPGGKITMLPENWIAAFSLDAGAHRPAVSIYFDVDGEFNVGAPTCKIEAVNIATNLRIQAIEPHFNAETGLDEAGEMMFAHHQDLIWFYQFATALQKARGKYEPDRAPQYDYSIELDEEGKVSVVRRERGSPIDTLVSEMMILANSTWAQMLHDNDLPGLFRVQPTGKVRMSTKSEPHIGMGVQHYGWFTSPLRRAADYINQKQLISLIDDTAEPLYQNSDAELFAALRDFDAAYTAYADFQRQMEAYWSLVYLQQQGTSELTATILKEDLVRIEGLPLVTRATGIPFDALPKSQALFKITELDAEKQFVSLNYIKAVAPAGTTAGNAV” the entry was “not soluble”.
As for “MNIKQFNEHITSLFGEHLHKYGDDEYGFTHISKDEFHKIGYTTNLTLETIEEAYRNGVDMIVTHHAPWSFLFGMEEACIEKLKQYEMNHFWVHLPLDFVKFGTCTSLFNGIGIDTILEYSTYEEEELPGIGEYKEAIPFSNLVGKLEERMEEKVKSWRNHDKPVKRIAILTGAGNNTNLIERALEKGCDTYITGEKTLYTVQHAKFKGINLIVGSHTFTEVFGVESLAHKLKERDNSIEITRLNEEHLELEHHHHHH”, the “soluble on expression in E. coli” value was “not soluble”.
Turning to “MNILGIETSCDETSAAVLSDGSVRSNIVSSQRCHTDFGGVVPELASREHERLIVSIVDAAITEANIAKNDLDVIAATAGPGLIGAVMVGLCFAEGLAWALGKPFVPVNHVEAHIFSPFISDEPGHREPKGDFVSLTVSGGHTLLSVVRQDLGYEVIGRTIDDAAGEAFDKTGKMLGLGYPAGPVIDRLAREGDSDFHRFPRALTASSQTSKSYRGNFDFSFSGLKTSVRTWLEAHDSEYVQKHQADLAASIQSAIVEVLVEKSVAAALLHKVNAISVAGGVSANSGLRSAMQAACDRHGIELFIPALAYSTDNAAMIATMAQLMIARGKYRIEDNSYGVAPFARFEAARKGAR”, the “soluble on expression in E. coli” value is reported as “not soluble”.
With “MNIMSESIPQFYKRIQRCDPQLGTTYSKENPYFNVLSRQCNFGTVQFSYRDFYKVTLIIGVGKLYYADKWILVNRPAMLFSNPLVPYAWESISEEQKGMFCIFNEQFVQSEEKNGSLANTPLFKVTGDKVFFLNDAQVAKVMDIYTQMQEENQSDYANKHDVLRCYLHLLIHTALKMQESNKYESHPNASQRITELFIELLDRQFPVDYPHSVLSLRTPADYANRLSIHVNHLNKVVKDTTGKTTSTMIAERIIKECTQYLLHSNFSISEIAYSLGFENMAYFSKFYRKHTGKSPSEIREQQLFDLCK” the entry was “not soluble”; with “MNIQNIRTLLDTVAVPNTARTLGGEKAVRSVEQRSDGIHIALHFGFPVAHIASETADRIQEILMPETGDTHIHLSMDTEIGTHKVQPGVTTIKGVKNIIAVASGKGGVGKSTTTANLAAAMARMGARVGVLDADLYGPSQPTMLGVDDRKPDQKNQKLIPVESSDGIQVMSIGFLVDTDQAVVWRGPMVSQALQQLMFQSEWDEVDYLFIDLPPGTGDIQLTLSQRIPVTGSVIVTTPQDIALIDARKAVDMFRKVNIPILGVLENMSVHICTNCGHSEALFGTDGGKDFAARLNVPLLGQLPLSLPVREAMDGGTPAQLFDEHPAIARIYTDAAFQIALSIADKGKDFSSRFPKIVVE”, “not soluble”; with “MNIVALHVVLYHPEIPANTGNIARTCAATNTTLHLIRPLGFSTDDKMLKRAGLDYWEFVNVVYHDSLEELFEAYKKGKFFFITKFGQQPHTSFDYTDLDEDYFFVFGRETSGLPKDLIQNNMDRCLRLPMTEHVRSLNLSNTAAILVYEALRQQNYRDLK”, “soluble”.
For “MNKALSVENLGFYYQAENFLFQQLNFDLNKGDILAVLGQNGCGKSTLLDLLLGIHRPIQGKIEVYQSIGFVPQFFSSPFAYSVLDIVLMGRSTHINTFAKPKSHDYQVAMQALDYLNLTHLAKREFTSLSGGQRQLILIARAIASECKLILLDEPTSALDLANQDIVLSLLIDLAQSQNMTVVFTTHQPNQVVAIANKTLLLNKQNFKFGETRNILTSENLTALFHLPMFEQQAQYKESFFTHFVPLYKTLLK” the value was “soluble”; for “MNKDQSKIPQATAKRLPLYYRFLKNLHASGKQRVSSAELSDAVKVDSATIRRDFSYFGALGKKGYGYNVDYLLSFFRKTLDQDEMTDVILIGVGNLGTAFLHYNFTKNNNTKISMAFDINESKIGTEVGGVPVYNLDDLEQHVKDESVAILTVPAVAAQSITDRLVALGIKGILNFTPARLNVPEHIRIHHIDLAVELQSLVYFLKHYSVLEEIE”, “soluble”; for “MNKEEIILSAKNWMHSHFENETTGHDWSHIKRVWKLSKEIQSKEGGDLFTIELAALFHDYSDIKLTTDEQEATKTLINWMETKEIPSELIKKIIRIIQSVSFKKGKNTFKALTIEEKIVQDADRLDAIGAIGIARTFTYGGAHNREIANQNNPKNTTLQHFYDKLLLIKDQLNTETAKTIAKEKQKIMQDFIQALEKELKVLEHHHHHH”, “soluble”.
With “MNKEKEQQLNEALVLFSFAYKTFTEEPDLIIKKYGIQRIHHRILFFVARFPGLSVNELLKLLEISKQALHKPMHILINKGLIFSKESDYDRRIKEIFLTNEGERLEKEISNIQREHLLSIFSQFHNGDEKSWLEIMRQLSLKRLGYAAWNKKK” the entry was “not soluble”.
Consider “MNKFKGNKVVLIGNGAVGSSYAFSLVNQSIVDELVIIDLDTEKVRGDVMDLKHATPYSPTTVRVKAGEYSDCHDADLVVICAGARQKPGETRLDLVSKNLKIFKSIVGEVMASKFDGIFLVATNPVDILAYATWKFSGLPKERVIGSGTILDSARFRLLLSEAFDVAPRSVDAQIIGEHGDTELPVWSHANIAGQPLKTLLEQRPEGKAQIEQIFVQTRDAAYDIIQAKGATYYGVAMGLARITEAIFRNEDAVLTVSALLEGEYEEEDVYIGVPAVINRNGIRNVVEIPLNDEEQSKFAHSAKTLKDIMAEAEELK”, for which the “soluble on expression in E. coli” value is recorded as “soluble”.
With “MNKIKILSITLEKRIISKNENDHSHQVIGQETEMTSKLEIRHKQRQDEIINAARRCFRRCGFHAASMSQIASEAQLSVGQIYRYFANKDAIIEEMVRRIIDFRIAQMDIDARTDHFPEVLALRKSLNEDDDALMLEVAAEATRNPRVMAMLEEADARMFANGCAHMKRMHPHLSDEHIRCCVEVFATMMEGTVYRRLTPQKSDPQHLQEIYQDIVSMLINK” the entry was “not soluble”.
